Results from article PMC4139157.

Target: human plasma fibrinogen (human) (UniProt P02671)
Experiment: ELISA

Sequence of UniProt P02671 (P02671 36-866, chain 1 of 3): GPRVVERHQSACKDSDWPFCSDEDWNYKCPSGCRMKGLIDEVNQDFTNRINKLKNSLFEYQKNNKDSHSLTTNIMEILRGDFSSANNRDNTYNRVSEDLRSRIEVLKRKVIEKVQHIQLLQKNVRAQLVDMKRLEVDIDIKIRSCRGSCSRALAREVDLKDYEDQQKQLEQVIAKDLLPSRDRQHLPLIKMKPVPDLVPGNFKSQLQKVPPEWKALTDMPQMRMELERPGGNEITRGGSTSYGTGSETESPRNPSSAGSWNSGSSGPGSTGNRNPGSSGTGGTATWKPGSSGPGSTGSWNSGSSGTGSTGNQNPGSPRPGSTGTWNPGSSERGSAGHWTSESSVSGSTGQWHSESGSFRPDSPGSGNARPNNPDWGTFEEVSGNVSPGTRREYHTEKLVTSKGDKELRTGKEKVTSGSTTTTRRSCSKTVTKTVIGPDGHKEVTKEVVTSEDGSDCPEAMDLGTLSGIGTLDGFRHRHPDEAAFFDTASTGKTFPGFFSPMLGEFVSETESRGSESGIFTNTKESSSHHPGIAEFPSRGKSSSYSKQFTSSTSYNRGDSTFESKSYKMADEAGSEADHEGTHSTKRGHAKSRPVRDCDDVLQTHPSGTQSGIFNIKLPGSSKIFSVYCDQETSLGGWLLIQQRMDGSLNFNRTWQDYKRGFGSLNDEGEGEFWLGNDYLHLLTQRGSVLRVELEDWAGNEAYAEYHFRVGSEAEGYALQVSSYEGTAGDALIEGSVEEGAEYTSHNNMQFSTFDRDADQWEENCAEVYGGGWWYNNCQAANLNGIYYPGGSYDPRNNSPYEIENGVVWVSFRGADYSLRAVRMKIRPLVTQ
Sequence of UniProt P02671 (P02675 45-491, chain 2 of 3, further chain): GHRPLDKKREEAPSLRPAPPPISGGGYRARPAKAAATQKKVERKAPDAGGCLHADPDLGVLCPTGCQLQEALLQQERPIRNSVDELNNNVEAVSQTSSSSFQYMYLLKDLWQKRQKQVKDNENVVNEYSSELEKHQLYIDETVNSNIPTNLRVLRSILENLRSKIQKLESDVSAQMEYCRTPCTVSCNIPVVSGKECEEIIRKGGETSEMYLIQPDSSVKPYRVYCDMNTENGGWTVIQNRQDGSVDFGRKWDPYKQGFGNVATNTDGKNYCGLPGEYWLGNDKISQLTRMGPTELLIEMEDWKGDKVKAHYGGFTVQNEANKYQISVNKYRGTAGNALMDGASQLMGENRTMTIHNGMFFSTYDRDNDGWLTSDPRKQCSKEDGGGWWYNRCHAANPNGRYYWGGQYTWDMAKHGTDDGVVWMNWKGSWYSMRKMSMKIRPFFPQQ
Sequence of UniProt P02671 (P02679 27-453, chain 3 of 3, further chain): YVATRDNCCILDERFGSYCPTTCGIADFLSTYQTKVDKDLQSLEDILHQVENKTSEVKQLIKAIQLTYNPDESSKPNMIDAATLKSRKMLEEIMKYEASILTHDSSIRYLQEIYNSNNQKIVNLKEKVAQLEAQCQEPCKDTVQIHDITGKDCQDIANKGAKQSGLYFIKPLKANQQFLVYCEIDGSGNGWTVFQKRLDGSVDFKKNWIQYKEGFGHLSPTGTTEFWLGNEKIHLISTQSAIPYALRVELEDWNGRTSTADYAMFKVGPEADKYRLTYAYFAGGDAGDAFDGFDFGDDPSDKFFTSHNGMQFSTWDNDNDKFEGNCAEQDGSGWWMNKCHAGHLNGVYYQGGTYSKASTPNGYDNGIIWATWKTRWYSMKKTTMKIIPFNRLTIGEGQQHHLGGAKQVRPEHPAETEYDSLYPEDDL

| Substance | Kd |
| --- | --- |
| Histidine-tagged LigB-12 (amino acids 1029–1123 of LigB) (domain or fragment) | 125 µM |
| Histidine-tagged LigBCen2R (amino acids 1014–1123 of LigB) (domain or fragment) | 117 µM |
